In patent US20040028607A1 one finds Km, deacetylation of acetylated H3 peptide, charcoal-binding assay and V/K, deacetylation of acetylated H3 peptide, charcoal-binding assay data, which are given here for two substances.

The experiment deals with monoacetylated histone H3 peptide …(AcK)APRKQL, acetylated on lysine-14. Nature of the experiment: cell-based or functional assay.
Sequence of monoacetylated histone H3 peptide …(AcK)APRKQL, acetylated on lysine-14 (peptide, as listed by the source): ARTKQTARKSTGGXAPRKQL

Take “recombinant yeast Hst2p (from UniProt P53686 1-357) (enzyme)”: the Km, deacetylation of acetylated H3 peptide, charcoal-binding assay came to 0.28 µM and the V/K, deacetylation of acetylated H3 peptide, charcoal-binding assay was determined as 718000 M⁻¹ s⁻¹.

As for “recombinant human SIRT2 (6xHis-tagged, with factor Xa cleavage site, purified from E. coli) (from UniProt Q8IXJ6 1-389) (enzyme)”, the Km, deacetylation of acetylated H3 peptide, charcoal-binding assay came to 54.2 µM and the V/K, deacetylation of acetylated H3 peptide, charcoal-binding assay worked out at 3930 M⁻¹ s⁻¹.
